What was measured:
[1] = molecular target: IST1 MIMs peptide (residues 316–366), fluorescently labeled (human, Oregon Green 488 maleimide on the non-native N-terminal cysteine); test: FP
[2] = molecular target: IST1 MIM2 peptide (residues 316–343); test: FP

B1: ULK3(MIT)2 V338D (domain or fragment)
chain: GPHMSGESLGRATALVVQAVKKDQEGDSAAALSLYCKALDFFVPALHYEVDAQRKEAIKAKVGQYDSRAEELKAIVSSSNQALLRQGTSARDLLREMARDKPRLLAALEVASAAMAKEEAAGGEQDALDLYQHSLGELLLLLAAEPPGRRRELLHTEVQNLMARAEYLKEQVKMRES
Kd [1]: 0.32 µM

B2: ULK3(MIT)2 (residues 277–449) (domain or fragment)
chain: GPHMSGESLGRATALVVQAVKKDQEGDSAAALSLYCKALDFFVPALHYEVDAQRKEAIKAKVGQYVSRAEELKAIVSSSNQALLRQGTSARDLLREMARDKPRLLAALEVASAAMAKEEAAGGEQDALDLYQHSLGELLLLLAAEPPGRRRELLHTEVQNLMARAEYLKEQVKMRES
Kd [2]: > 300 µM

B3: ULK3(MIT)2 M434D (domain or fragment)
chain: GPHMSGESLGRATALVVQAVKKDQEGDSAAALSLYCKALDFFVPALHYEVDAQRKEAIKAKVGQYVSRAEELKAIVSSSNQALLRQGTSARDLLREMARDKPRLLAALEVASAAMAKEEAAGGEQDALDLYQHSLGELLLLLAAEPPGRRRELLHTEVQNLDARAEYLKEQVKMRES
Kd [1]: 24.3 µM
